Literature values as cited in publication PMC10060530.

Assays:
NaV1.7 (Homo sapiens) = NaV1.7 (Homo sapiens) (UniProt Q15858)
[1] = molecular target: NaV1.4 (Rattus norvegicus) (UniProt P15390)
[2] = molecular target: NaV1.2 (Rattus norvegicus) (UniProt P04775)
Sequence of UniProt P04775 (P04775 whole entry): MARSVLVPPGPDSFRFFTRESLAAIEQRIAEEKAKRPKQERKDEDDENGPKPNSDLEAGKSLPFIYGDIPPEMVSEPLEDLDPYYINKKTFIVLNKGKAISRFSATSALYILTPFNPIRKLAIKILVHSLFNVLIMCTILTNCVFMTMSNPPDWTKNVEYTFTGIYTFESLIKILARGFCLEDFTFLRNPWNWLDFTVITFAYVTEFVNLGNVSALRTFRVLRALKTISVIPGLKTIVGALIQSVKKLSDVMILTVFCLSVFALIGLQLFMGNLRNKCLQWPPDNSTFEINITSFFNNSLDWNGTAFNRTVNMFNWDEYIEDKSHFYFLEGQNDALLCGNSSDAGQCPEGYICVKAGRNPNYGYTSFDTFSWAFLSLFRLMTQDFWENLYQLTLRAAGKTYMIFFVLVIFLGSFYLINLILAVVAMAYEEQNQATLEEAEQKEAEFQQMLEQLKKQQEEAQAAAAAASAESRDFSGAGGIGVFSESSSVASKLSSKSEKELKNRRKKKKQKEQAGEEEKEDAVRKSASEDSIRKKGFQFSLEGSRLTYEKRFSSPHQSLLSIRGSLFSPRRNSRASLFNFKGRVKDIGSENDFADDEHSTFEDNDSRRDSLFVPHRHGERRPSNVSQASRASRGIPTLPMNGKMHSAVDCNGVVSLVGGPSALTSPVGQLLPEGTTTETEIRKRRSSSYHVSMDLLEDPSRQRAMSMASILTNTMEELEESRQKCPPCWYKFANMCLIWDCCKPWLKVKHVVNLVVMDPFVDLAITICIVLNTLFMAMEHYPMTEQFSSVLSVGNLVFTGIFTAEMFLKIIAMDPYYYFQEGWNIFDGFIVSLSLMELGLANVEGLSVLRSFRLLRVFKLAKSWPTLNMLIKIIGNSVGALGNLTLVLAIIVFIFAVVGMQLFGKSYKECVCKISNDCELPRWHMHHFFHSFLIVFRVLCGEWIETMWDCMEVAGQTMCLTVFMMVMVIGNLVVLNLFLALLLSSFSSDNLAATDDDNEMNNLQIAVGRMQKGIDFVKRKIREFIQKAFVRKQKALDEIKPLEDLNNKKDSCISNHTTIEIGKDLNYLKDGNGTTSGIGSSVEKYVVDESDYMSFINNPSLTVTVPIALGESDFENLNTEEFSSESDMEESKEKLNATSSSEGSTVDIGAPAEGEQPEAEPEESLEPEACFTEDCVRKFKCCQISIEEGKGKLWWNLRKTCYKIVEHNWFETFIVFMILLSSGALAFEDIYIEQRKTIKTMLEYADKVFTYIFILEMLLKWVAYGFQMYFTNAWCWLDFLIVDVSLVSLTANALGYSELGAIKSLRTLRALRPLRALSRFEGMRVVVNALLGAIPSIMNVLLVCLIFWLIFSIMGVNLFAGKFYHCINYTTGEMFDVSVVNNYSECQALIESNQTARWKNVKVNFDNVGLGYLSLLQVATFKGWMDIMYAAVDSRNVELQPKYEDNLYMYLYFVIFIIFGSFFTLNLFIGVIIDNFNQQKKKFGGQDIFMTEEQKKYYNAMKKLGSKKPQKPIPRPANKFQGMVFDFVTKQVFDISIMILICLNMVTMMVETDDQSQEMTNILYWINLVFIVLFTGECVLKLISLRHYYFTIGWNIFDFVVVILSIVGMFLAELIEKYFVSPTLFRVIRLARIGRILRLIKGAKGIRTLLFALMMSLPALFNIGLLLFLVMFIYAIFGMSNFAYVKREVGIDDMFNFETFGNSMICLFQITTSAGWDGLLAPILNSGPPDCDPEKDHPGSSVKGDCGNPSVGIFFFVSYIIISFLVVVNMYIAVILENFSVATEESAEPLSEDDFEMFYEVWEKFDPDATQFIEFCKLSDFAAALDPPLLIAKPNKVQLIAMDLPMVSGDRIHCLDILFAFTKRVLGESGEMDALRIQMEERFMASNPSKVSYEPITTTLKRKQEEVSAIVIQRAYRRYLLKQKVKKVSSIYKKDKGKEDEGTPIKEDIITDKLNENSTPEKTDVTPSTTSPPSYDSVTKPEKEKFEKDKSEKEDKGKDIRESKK

Sequence of UniProt P15390 (P15390 whole entry): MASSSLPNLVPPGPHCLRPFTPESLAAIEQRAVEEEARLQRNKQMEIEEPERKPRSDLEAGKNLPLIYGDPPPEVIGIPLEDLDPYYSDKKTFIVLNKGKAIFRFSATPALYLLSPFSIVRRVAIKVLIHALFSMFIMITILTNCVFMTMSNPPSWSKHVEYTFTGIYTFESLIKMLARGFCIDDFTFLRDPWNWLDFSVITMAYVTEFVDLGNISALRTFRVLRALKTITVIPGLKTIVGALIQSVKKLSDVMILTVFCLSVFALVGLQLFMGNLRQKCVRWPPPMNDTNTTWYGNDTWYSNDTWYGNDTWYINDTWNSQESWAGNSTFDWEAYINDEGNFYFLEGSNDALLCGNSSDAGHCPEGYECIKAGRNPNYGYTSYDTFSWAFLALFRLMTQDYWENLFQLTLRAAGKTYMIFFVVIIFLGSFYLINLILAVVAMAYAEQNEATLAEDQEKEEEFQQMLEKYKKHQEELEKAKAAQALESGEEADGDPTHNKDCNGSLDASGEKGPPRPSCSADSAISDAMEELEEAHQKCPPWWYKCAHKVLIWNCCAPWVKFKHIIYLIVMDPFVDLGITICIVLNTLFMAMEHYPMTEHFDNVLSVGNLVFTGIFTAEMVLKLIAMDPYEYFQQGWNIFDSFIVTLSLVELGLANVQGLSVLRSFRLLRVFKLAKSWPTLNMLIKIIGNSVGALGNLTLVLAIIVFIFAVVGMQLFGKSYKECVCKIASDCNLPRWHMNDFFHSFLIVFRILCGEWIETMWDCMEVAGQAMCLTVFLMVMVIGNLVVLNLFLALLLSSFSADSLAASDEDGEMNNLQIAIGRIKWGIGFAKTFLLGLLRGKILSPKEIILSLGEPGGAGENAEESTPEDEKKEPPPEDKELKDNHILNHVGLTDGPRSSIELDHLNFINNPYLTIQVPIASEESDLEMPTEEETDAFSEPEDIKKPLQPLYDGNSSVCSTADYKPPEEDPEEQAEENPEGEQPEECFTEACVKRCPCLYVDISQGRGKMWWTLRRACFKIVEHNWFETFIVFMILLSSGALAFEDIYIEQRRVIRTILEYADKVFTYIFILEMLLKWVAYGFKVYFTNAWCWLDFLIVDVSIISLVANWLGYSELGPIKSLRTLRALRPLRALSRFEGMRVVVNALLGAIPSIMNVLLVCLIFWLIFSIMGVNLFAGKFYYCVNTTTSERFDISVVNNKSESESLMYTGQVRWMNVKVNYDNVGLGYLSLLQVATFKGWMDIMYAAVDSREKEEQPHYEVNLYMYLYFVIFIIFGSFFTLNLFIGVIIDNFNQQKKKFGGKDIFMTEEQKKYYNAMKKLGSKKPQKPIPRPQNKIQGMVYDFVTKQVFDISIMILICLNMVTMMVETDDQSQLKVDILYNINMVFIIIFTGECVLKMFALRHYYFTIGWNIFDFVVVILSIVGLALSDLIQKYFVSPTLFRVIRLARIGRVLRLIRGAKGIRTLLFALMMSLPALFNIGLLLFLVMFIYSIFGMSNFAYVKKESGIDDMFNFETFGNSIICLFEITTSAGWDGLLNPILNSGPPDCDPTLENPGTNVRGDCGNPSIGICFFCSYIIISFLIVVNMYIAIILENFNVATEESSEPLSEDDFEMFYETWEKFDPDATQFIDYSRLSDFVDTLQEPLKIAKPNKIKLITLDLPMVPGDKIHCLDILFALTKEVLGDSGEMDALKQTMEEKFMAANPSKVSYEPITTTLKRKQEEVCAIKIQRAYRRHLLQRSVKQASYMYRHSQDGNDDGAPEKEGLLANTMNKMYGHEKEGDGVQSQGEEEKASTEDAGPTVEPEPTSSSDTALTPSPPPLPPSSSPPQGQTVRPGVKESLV

## mu-conotoxin KIIIA (from UniProt P0C195)
NaV1.7 (Homo sapiens)
  Kd: 97 nM
[1]
  Kd: 37 nM
[2]
  Kd: 5 nM
